T1: Flag tagged-human Lmbr1l (limb region 1 like, LMBR1L) (human, UniProt Q6UX01 1-489)
T1 construct: It carries a Flag tag; also called h-LMBR1L; LIMR
T1 sequence: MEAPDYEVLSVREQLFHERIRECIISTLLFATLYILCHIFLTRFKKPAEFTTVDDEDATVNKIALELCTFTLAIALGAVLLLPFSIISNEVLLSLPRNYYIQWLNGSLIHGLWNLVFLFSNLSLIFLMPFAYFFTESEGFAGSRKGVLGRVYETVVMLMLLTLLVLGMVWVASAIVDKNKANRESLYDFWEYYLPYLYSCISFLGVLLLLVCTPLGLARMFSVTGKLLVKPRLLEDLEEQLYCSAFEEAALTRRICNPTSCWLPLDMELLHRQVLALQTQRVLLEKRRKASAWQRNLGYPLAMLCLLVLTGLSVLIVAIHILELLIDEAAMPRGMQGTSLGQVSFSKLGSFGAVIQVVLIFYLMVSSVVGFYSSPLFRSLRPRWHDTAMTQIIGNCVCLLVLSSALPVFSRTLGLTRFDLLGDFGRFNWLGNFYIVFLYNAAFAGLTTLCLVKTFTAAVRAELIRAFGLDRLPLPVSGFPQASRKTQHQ

T2: FLAG-tagged β-catenin
T2 chain: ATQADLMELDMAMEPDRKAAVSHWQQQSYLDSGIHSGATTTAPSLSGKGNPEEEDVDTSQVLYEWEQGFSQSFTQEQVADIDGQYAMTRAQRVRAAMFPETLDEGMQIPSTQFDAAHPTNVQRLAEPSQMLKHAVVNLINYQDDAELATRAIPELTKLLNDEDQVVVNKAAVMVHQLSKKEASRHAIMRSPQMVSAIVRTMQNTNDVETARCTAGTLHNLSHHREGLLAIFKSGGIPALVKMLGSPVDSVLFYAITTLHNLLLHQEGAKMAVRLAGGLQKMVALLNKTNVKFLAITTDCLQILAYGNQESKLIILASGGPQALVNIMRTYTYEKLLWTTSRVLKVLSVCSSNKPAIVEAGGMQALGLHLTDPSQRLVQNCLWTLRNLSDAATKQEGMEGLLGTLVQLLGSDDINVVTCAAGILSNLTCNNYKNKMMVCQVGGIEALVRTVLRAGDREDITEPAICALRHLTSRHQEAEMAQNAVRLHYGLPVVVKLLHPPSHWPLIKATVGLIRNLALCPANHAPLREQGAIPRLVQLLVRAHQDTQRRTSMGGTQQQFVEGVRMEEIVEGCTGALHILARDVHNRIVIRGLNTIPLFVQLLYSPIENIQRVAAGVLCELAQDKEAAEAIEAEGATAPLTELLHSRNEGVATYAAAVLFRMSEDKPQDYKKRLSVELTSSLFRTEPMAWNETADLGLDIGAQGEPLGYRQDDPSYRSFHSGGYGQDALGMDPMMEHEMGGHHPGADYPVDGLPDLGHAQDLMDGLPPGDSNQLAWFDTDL

B1: glycoprotein 78 (GP78; known as AMFR) (enzyme, UniProt Q9UKV5 1-643, looked up)
chain: MPLLFLERFPWPSLRTYTGLSGLALLGTIISAYRALSQPEAGPGEPDQLTASLQPEPPAPARPSAGGPRARDVAQYLLSDSLFVWVLVNTACCVLMLVAKLIQCIVFGPLRVSERQHLKDKFWNFIFYKFIFIFGVLNVQTVEEVVMWCLWFAGLVFLHLMVQLCKDRFEYLSFSPTTPMSSHGRVLSLLVAMLLSCCGLAAVCSITGYTHGMHTLAFMAAESLLVTVRTAHVILRYVIHLWDLNHEGTWEGKGTYVYYTDFVMELTLLSLDLMHHIHMLLFGNIWLSMASLVIFMQLRYLFHEVQRRIRRHKNYLRVVGNMEARFAVATPEELAVNNDDCAICWDSMQAARKLPCGHLFHNSCLRSWLEQDTSCPTCRMSLNIADNNRVREEHQGENLDENLVPVAAAEGRPRLNQHNHFFHFDGSRIASWLPSFSVEVMHTTNILGITQASNSQLNAMAHQIQEMFPQVPYHLVLQDLQLTRSVEITTDNILEGRIQVPFPTQRSDSIRPALNSPVERPSSDQEEGETSAQTERVPLDLSPRLEETLDFGEVEVEPSEVEDFEARGSRFSKSADERQRMLVQRKDELLQQARKRFLNKSSEDDAASESFLPSEGASSDPVTLRRRMLAAAAERRLQKQQTS
notes: Identified by LC-MS/MS in the LMBR1L co-IP; also called AMFR (GP78)
B2: ubiquitin associated domain containing 2 (UBAC2) (other, UniProt Q8NBM4 36-344, looked up)
chain: HCQKLFVYDLHAVKNDFQIWRLICGRIICLDLKDTFCSSLLIYNFRIFERRYGSRKFASFLLGSWVLSALFDFLLIEAMQYFFGITAASNLPSGFLAPVFALFVPFYCSIPRVQVAQILGPLSITNKTLIYILGLQLFTSGSYIWIVAISGLMSGLCYDSKMFQVHQVLCIPSWMAKFFSWTLEPIFSSSEPTSEARIGMGATLDIQRQQRMELLDRQLMFSQFAQGRRQRQQQGGMINWNRLFPPLRQRQNVNYQGGRQSEPAAPPLEVSEEQVARLMEMGFSRGDALEALRASNNDLNVATNFLLQH
notes: Identified by LC-MS/MS in the LMBR1L co-IP
B3: UBX domain-containing protein 8 (UBXD8, known as FAF2) (other, UniProt Q96CS3 2-445, looked up)
chain: AAPEERDLTQEQTEKLLQFQDLTGIESMDQCRHTLEQHNWNIEAAVQDRLNEQEGVPSVFNPPPSRPLQVNTADHRIYSYVVSRPQPRGLLGWGYYLIMLPFRFTYYTILDIFRFALRFIRPDPRSRVTDPVGDIVSFMHSFEEKYGRAHPVFYQGTYSQALNDAKRELRFLLVYLHGDDHQDSDEFCRNTLCAPEVISLINTRMLFWACSTNKPEGYRVSQALRENTYPFLAMIMLKDRRMTVVGRLEGLIQPDDLINQLTFIMDANQTYLVSERLEREERNQTQVLRQQQDEAYLASLRADQEKERKKREERERKRRKEEEVQQQKLAEERRRQNLQEEKERKLECLPPEPSPDDPESVKIIFKLPNDSRVERRFHFSQSLTVIHDFLFSLKESPEKFQIEANFPRRVLPCIPSEEWPNPPTLQEAGLSHTEVLFVQDLTDE
notes: Identified by LC-MS/MS in the LMBR1L co-IP; also called FAF2 (UBXDB8)

How the values were obtained:
[1] = molecular target: Flag tagged-human Lmbr1l (limb region 1 like, LMBR1L) (human) (UniProt Q6UX01); experiment: anti-FLAG co-IP from HEK293T lysate + LC-MS/MS, vs empty vector
[2] = molecular target: T1, Flag tagged-human Lmbr1l (limb region 1 …); experiment: as above
Protocol: We sought to understand the immune function of LMBRL1 by identifying LMBR1L-interacting proteins using co-immunoprecipitation (co-IP) combined with mass spectrometry (MS) analysis. Among the 1,623 candidate proteins identified as putative LMBR1L interactors (Dataset S1), 25 proteins were >50-fold more abundant in the LMBR1L co-IP product relative to empty vector control (Table 1).
Co-immunoprecipitation and mass spectrometry were performed to identify Lmbr1l-interacting proteins as described below. Transfection was performed in HEK293T cells (ATCC) using Lipofectamine 2000 reagent (Life technologies) with plasmid encoding Flag tagged-human Lmbr1l or empty vector control. Forty-eight hours after transfection, cells were harvested in NP-40 lysis buffer for 45 min at 4° C. […] The proteins were eluted with SDS sample buffer and heated at 95° C. for 10 min. Lysates were loaded onto 12% (wt/vol) SDS-PAGE gel and run 1 cm into the separation gel. The gel was stained with Coomassie blue (Thermo Fisher) and whole stained lanes were subjected to mass spectrometry analysis (LCMS/MS) as described previously (33).

FLAG-tagged β-catenin = molecular target: T2, FLAG-tagged β-catenin

Molecule	Ratio h-LMBR1L/h-vector [1]	further results
AAAS (from UniProt F8VZ44 1-422)	81.9	
CKAP4 (from UniProt Q07065 1-602)	79.5	
COPA (from UniProt P53621 1-1224)	110	
EIF4G1 (from UniProt E7EUU4 1-1560)	58.1	
FKBP8 (from UniProt Q14318 1-413)	87.6	
GANAB (from UniProt Q14697 29-944) (enzyme)	198	
GAPVD1 (from UniProt Q14C86 1-1478)	110	
IARS (from UniProt J3KR24 1-1121) (enzyme)	106	
IMMT	100	
MAGED1 (from UniProt Q9Y5V3 1-778)	58.1	
NCAPD2 (from UniProt Q15021 1-1401)	169	
NDUFA2 (from UniProt O43678 2-99)	107	
PDCD6IP (from UniProt Q8WUM4 2-868)	67.3	
PTPLAD1	87.6	
RPN1 (from UniProt P04843 24-607)	118	
SRP68 (from UniProt Q9UHB9 1-627)	198	
SRPRB (from UniProt Q9Y5M8 1-271)	231	
STT3A (from UniProt P46977 1-705) (enzyme)	65.6	
TMEM33 (from UniProt P57088 2-247)	87	
TMEM209 (from UniProt Q96SK2 1-561)	97.8	
USP9X (from UniProt Q93008 1-2554) (enzyme)	51.6	
B1		Ratio h-LMBR1L/h-vector [2]: 51.7 ratio; ubiquitination of β-catenin (anti-FLAG IP, anti-ubiquitin immunoblot) (FLAG-tagged β-catenin): Co-expression of FLAG-tagged β-catenin and HA-tagged GP78 strongly promoted the ubiquitination of β-catenin
B2		Ratio h-LMBR1L/h-vector [2]: 297 ratio
B3		Ratio h-LMBR1L/h-vector [2]: 71.2 ratio

— US20210269519A1 (University of Texas, published 2021)
